Data taken from US20030203464.

Target: Rac1 (UniProt P63000)

Substance	GEF activity (32P-GTP bound to the GTPase, filter assay), with and without ascorbyl stearate	GEF activity (32P-GTP bound to the GTPase, filter assay), with ascorbyl stearate	GEF activity (32P-GTP bound to the GTPase, filter assay), without lipid
135 kD Tiam-1	shows weak GEF activity towards Rac in the absence of AS, but is still greatly stimulated by AS		
106 kD Tiam-1		Other truncations of Tiam-1, all containing the DH and PH domains (FIG. 3), also exhibited AS stimulated GEF activity on Rac 1	
85 kD Tiam-1		ascorbyl stearate (AS) stimulated the rate of Tiam-1-mediated nucleotide exchange on Rac 1	this truncation alone, at various concentrations, exhibited no GEF activity towards Rac 1
66 kD Tiam-1		Other truncations of Tiam-1, all containing the DH and PH domains (FIG. 3), also exhibited AS stimulated GEF activity on Rac 1	
